The text below walks through data of publication PMC4711005, “LRRK2 phosphorylates pre-synaptic N-ethylmaleimide sensitive fusion (NSF) protein enhancing its ATPase activity and SNARE complex disassembling rate” (Molecular Neurodegeneration, 2016).

Substitutions are numbered along the chain they refer to. Numbers in names are those of the source.

The data set deals with the molecule itself. In words: negative-stain transmission electron microscopy; purified NSF incubated with 1 mM ATP and 2 mM MgCl2, adsorbed to carbon-coated grids, stained with 1 % uranyl acetate.

B1: Flag-NSF full-length (human, aa 1-744) (enzyme, UniProt P46459 1-744, looked up)
chain: MAGRSMQAARCPTDELSLTNCAVVNEKDFQSGQHVIVRTSPNHRYTFTLKTHPSVVPGSIAFSLPQRKWAGLSIGQEIEVSLYTFDKAKQCIGTMTIEIDFLQKKSIDSNPYDTDKMAAEFIQQFNNQAFSVGQQLVFSFNEKLFGLLVKDIEAMDPSILKGEPATGKRQKIEVGLVVGNSQVAFEKAENSSLNLIGKAKTKENRQSIINPDWNFEKMGIGGLDKEFSDIFRRAFASRVFPPEIVEQMGCKHVKGILLYGPPGCGKTLLARQIGKMLNAREPKVVNGPEILNKYVGESEANIRKLFADAEEEQRRLGANSGLHIIIFDEIDAICKQRGSMAGSTGVHDTVVNQLLSKIDGVEQLNNILVIGMTNRPDLIDEALLRPGRLEVKMEIGLPDEKGRLQILHIHTARMRGHQLLSADVDIKELAVETKNFSGAELEGLVRAAQSTAMNRHIKASTKVEVDMEKAESLQVTRGDFLASLENDIKPAFGTNQEDYASYIMNGIIKWGDPVTRVLDDGELLVQQTKNSDRTPLVSVLLEGPPHSGKTALAAKIAEESNFPFIKICSPDKMIGFSETAKCQAMKKIFDDAYKSQLSCVVVDDIERLLDYVPIGPRFSNLVLQALLVLLKKAPPQGRKLLIIGTTSRKDVLQEMEMLNAFSTTIHVPNIATGEQLLEALELLGNFKDKERTTIAQQVKGKKVWIGIKKLLMLIEMSLQMDPEYRVRKFLALLREEGASPLDFD
notes: N-ethylmaleimide sensitive fusion protein (NSF), human, full-length, aa 1-744; Cloned into the p3XFLAG-CMV-7.1 vector; also called 3xFlag-NSF wt; NSF wild-type; source: kept on the resin or eluted with 3xFlag peptide; also in HEK293T lysate; not shown: Flag, N-terminal, kept
What is called stoichiometry N is the number of molecules, sites or subunits per partner or assembly. Consider B1, for which the “stoichiometry N” value worked out at 6.

B2: NSF T645A (enzyme, human, UniProt P46459 1-744, looked up)
chain: B1 chain with T645A
notes: NSF, human, phospho-deficient mutant T645A of the NSF wild-type construct (full-length aa 1-744), made by QuickChange mutagenesis; source: HEK293T, expressed and purified
Turning to B2, the “stoichiometry N” value worked out at 6.
